To fix the notation:
B1: MexB, full length (natural protein)
chain: MSKFFIDRPIFAWVIALVIMLAGGLSILSLPVNQYPAIAPPAIAVQVSYPGASAETVQDTVVQVIEQQMNGIDNLRYISSESNSDGSMTITVTFEQGTDPDIAQVQVQNKLQLATPLLPQEVQRQGIRVTKAVKNFLMVVGVVSTDGSMTKEDLSNYIVSNIQDPLSRTKGVGDFQVFGSQYSMRIWLDPAKLNSYQLTPGDVSSAIQAQNVQISSGQLGGLPAVKGQQLNATIIGKTRLQTAEQFENILLKVNPDGSQVRLKDVADVGLGGQDYSINAQFNGSPASGIAIKLATGANALDTAKAIRQTIANLEPFMPQGMKVVYPYDTTPVVSASIHEVVKTLGEAILLVFLVMYLFLQNFRATLIPTIAVPVVLLGTFGVLAAFGFSINTLTMFGMVLAIGLLVDDAIVVVENVERVMAEEGLSPREAARKSMGQIQGALVGIAMVLSAVFLPMAFFGGSTGVIYRQFSITIVSAMALSVIVALILTPALCATMLKPIEKGDHGEHKGGFFGWFNRMFLSTTHGYERGVASILKHRAPYLLIYVVIVAGMIWMFTRIPTAFLPDEDQGVLFAQVQTPPGSSAERTQVVVDSMREYLLEKESSSVSSVFTVTGFNFAGRGQSSGMAFIMLKPWEERPGGENSVFELAKRAQMHFFSFKDAMVFAFAPPSVLELGNATGFDLFLQDQAGVGHEVLLQARNKFLMLAAQNPALQRVRPNGMSDEPQYKLEIDDEKASALGVSLADINSTVSIAWGSSYVNDFIDRGRVKRVYLQGRPDARMNPDDLSKWYVRNDKGEMVPFNAFATGKWEYGSPKLERYNGVPAMEILGEPAPGLSSGDAMAAVEEIVKQLPKGVGYSWTGLSYEERLSGSQAPALYALSLLVVFLCLAALYESWSIPFSVMLVVPLGVIGALLATSMRGLSNDVFFQVGLLTTIGLSAKNAILIVEFAKELHEQGKGIVEAAIEACRMRLRPIVMTSLAFILGVVPLAISTGAGSGSQHAIGTGVIGGMVTATVLAIFWVPLFYVAVSTLFKDEASKQQASVEKGQ
notes: MexB (RND transporter), Pseudomonas aeruginosa, full length; also called RND transporter; source: E. coli C43(DE3), membranes solubilised with DDM, purified (Ni-chelating Sepharose, Superdex200, CYMAL-7)
B2: OprM, full length (natural protein)
chain: CSLIPDYQRPEAPVAAAYPQGQAYGQNTGAAAVPAADIGWREFFRDPQLQQLIGVALENNRDLRVAALNVEAFRAQYRIQRADLFPRIGVDGSGTRQRLPGDLSTTGSPAISSQYGVTLGTTAWELDLFGRLRSLRDQALEQYLATEQAQRSAQTTLVASVATAYLTLKADQAQLQLTKDTLGTYQKSFDLTQRSYDVGVASALDLRQAQTAVEGARATLAQYTRLVAQDQNALVLLLGSGIPANLPQGLGLDQTLLTEVPAGLPSDLLQRRPDILEAEHQLMAANASIGAARAAFFPSISLTANAGTMSRQLSGLFDAGSGSWLFQPSINLPIFTAGSLRASLDYAKIQKDINVAQYEKAIQTAFQEVADGLAARGTFTEQLQAQRDLVKASDEYYQLADKRYRTGVDNYLTLLDAQRSLFTAQQQLITDRLNQLTSEVNLYKALGGGWNQQTVTQQQTAKKEDPQA
notes: OprM (outer membrane factor), Pseudomonas aeruginosa, gene encoding full-length OprM; The full-length gene was expressed; also called OMF; outer membrane factor; source: E. coli C43(DE3), outer membranes solubilised with OG, purified (Ni-NTA, Superdex200, CYMAL-7)

Series [1] deals with the molecule itself. Description: cryo-EM structure; MexA, MexB and OprM reconstituted in vitro, detergent replaced with amphipol A8-35, 50 mM HEPES-K pH 7.5; single-particle analysis; 0° and 60° states; without drug and with 10 mM novobiocin.
Series [2] deals with B2. Described as above. The following applies: both partners purified.
For the series “MexB, full length”, the target named is B1. Description: SEC; complex-formation experiment: MexA, MexB and OprM (wild type, or one of them mutated) mixed at 3:1:1 in buffer C, dialysed against buffer D (20 mM Na-citrate, 300 mM KCl, 0.02% CYMAL-7) at 4 °C, Superdex200 16/60, 0.5 mL/min; the read-out is the formation of the tripartite complex. The following applies: both partners purified. A general note: Size exclusion chromatography separates by hydrodynamic size, large species first.

Series [3] has as its target B2. The description is as above. The following applies: both partners purified.

The record followed here is PMC6447562, “Structures of the wild-type MexAB–OprM tripartite pump reveal its complex formation and drug efflux mechanism” (Nature Communications, 2019).

A word on the stoichiometry N: it is a count of units in the complex or per binding partner. Take B1: the “stoichiometry N” value in series [1] came out at 3.
Regarding B2, the “stoichiometry N” value in series [1] was 3.

B3: MexA (a.a. 2-360) (natural protein)
chain: GKSEAPPPAQTPEVGIVTLEAQTVTLNTELPGRTNAFRIAEVRPQVNGIILKRLFKEGSDVKAGQQLYQIDPATYEADYQSAQANLASTQEQAQRYKLLVADQAVSKQQYADANAAYLQSKAAVEQARINLRYTKVLSPISGRIGRSAVTEGALVTNGQANAMATVQQLDPIYVDVTQPSTALLRLRRELASGQLERAGDNAAKVSLKLEDGSQYPLEGRLEFSEVSVDEGTGSVTIRAVFPNPNNELLPGMFVHAQLQEGVKQKAILAPQQGVTRDLKGQATALVVNAQNKVELRVIKADRVIGDKWLVTEGLNAGDKIITEGLQFVQPGVEVKTVPAKNVASAQKADAAPAKTDSKG
notes: MexA (membrane fusion protein), Pseudomonas aeruginosa, a.a; 2-360, lacks the signal peptide and the first cysteine; numbers count on: the mature protein; Six copies (a hexamer) stand in the assembled MexAB-OprM pump; also called MFP; membrane fusion protein; source: E. coli BL21-RILP(DE3), purified (Ni-NTA, TEV cleavage, Superdex200); not shown: His6, N-terminal, cleaved
As for B3, the “stoichiometry N” value with OprM, full length [2] was determined as 2 MexA per OprM; in series [1] it was 6.

B4: MexA R96A (natural protein, Pseudomonas aeruginosa, UniProt P52477 25-383, looked up)
chain: GKSEAPPPAQTPEVGIVTLEAQTVTLNTELPGRTNAFRIAEVRPQVNGIILKRLFKEGSDVKAGQQLYQIDPATYEADYQSAQANLASTQEQAQAYKLLVADQAVSKQQYADANAAYLQSKAAVEQARINLRYTKVLSPISGRIGRSAVTEGALVTNGQANAMATVQQLDPIYVDVTQPSTALLRLRRELASGQLERAGDNAAKVSLKLEDGSQYPLEGRLEFSEVSVDEGTGSVTIRAVFPNPNNELLPGMFVHAQLQEGVKQKAILAPQQGVTRDLKGQATALVVNAQNKVELRVIKADRVIGDKWLVTEGLNAGDKIITEGLQFVQPGVEVKTVPAKNVASAQKADAAPAKTDSKG
notes: MexA, Pseudomonas aeruginosa, a.a; 2-360 as m1; numbers count on: the mature protein; source: E. coli, expressed and purified as the wild type; not shown: His6, N-terminal, cleaved
As to B4, the binding result is recorded as “binds” in the series with MexB, full length and “binds” in the series with OprM, full length [3].

B5: MexA L99D (natural protein, Pseudomonas aeruginosa, UniProt P52477 25-383, looked up)
chain: GKSEAPPPAQTPEVGIVTLEAQTVTLNTELPGRTNAFRIAEVRPQVNGIILKRLFKEGSDVKAGQQLYQIDPATYEADYQSAQANLASTQEQAQRYKDLVADQAVSKQQYADANAAYLQSKAAVEQARINLRYTKVLSPISGRIGRSAVTEGALVTNGQANAMATVQQLDPIYVDVTQPSTALLRLRRELASGQLERAGDNAAKVSLKLEDGSQYPLEGRLEFSEVSVDEGTGSVTIRAVFPNPNNELLPGMFVHAQLQEGVKQKAILAPQQGVTRDLKGQATALVVNAQNKVELRVIKADRVIGDKWLVTEGLNAGDKIITEGLQFVQPGVEVKTVPAKNVASAQKADAAPAKTDSKG
notes: as for B4
B5: the binding result with MexB, full length is “binds”; in the series with OprM, full length [3], “binds”.

B6: MexA R96D (natural protein, Pseudomonas aeruginosa, UniProt P52477 25-383, looked up)
chain: GKSEAPPPAQTPEVGIVTLEAQTVTLNTELPGRTNAFRIAEVRPQVNGIILKRLFKEGSDVKAGQQLYQIDPATYEADYQSAQANLASTQEQAQDYKLLVADQAVSKQQYADANAAYLQSKAAVEQARINLRYTKVLSPISGRIGRSAVTEGALVTNGQANAMATVQQLDPIYVDVTQPSTALLRLRRELASGQLERAGDNAAKVSLKLEDGSQYPLEGRLEFSEVSVDEGTGSVTIRAVFPNPNNELLPGMFVHAQLQEGVKQKAILAPQQGVTRDLKGQATALVVNAQNKVELRVIKADRVIGDKWLVTEGLNAGDKIITEGLQFVQPGVEVKTVPAKNVASAQKADAAPAKTDSKG
notes: as for B4
B6: the binding result with OprM, full length [3] is listed as “binds”.
